Each block holds one binder with its values, some of them ahead of it. Numbered stars: 1 amine (or outer) side, 2 acyl side, 3 side chain; on linkers, the order of the positions; unused ones are H or OH. Bridge positions count the residues as written; N and C are the ends. Side chains are listed from the residue outwards. Ends that are not written are not given here. * marks the point of attachment. C20 diacid = O=C(O)CCCCCCCCCCCCCCCCCCC(=O)*; γGlu = O=C(O)[C@H](CCC(=O)[*:2])N[*:1]
How the values were obtained:
[1] = biological target: T1, human amylin 3(a) receptor (human calcitonin receptor + RAMP-3) (human, UniProt P30988 25-474; O60896 24-148, limits assumed); experiment: cell-based or functional assay
T1 sequence (looked up) 1: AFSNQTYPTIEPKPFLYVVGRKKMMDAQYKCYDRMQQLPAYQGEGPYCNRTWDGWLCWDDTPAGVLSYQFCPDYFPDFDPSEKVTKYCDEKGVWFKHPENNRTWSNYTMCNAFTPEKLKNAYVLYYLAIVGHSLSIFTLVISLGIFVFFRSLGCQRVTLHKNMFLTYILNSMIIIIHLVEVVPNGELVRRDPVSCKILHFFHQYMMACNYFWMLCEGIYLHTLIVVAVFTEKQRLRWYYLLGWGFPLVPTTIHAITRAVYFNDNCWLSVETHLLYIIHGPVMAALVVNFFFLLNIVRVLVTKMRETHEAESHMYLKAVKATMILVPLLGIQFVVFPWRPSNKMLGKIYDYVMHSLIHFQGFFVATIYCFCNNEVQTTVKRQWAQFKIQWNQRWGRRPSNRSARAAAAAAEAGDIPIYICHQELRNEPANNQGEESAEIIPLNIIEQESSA
T1 sequence (looked up) 2: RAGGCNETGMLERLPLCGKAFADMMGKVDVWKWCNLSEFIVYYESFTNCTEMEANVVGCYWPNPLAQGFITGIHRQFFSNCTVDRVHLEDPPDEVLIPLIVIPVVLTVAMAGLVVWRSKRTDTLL

[2] = biological target: T2, human calcitonin receptor (human, UniProt P30988 25-474); experiment: cell-based or functional assay
T2 sequence (looked up): T1 sequence (looked up) 1

B1: N^ε1-[(4S)-4-carboxy-4-[[(4S)-4-carboxy-4-(19-carboxynonadecanoylamino)butanoyl]amino]butanoyl]-[Glu14,Arg17,Pro21,Pro27,Pro37]-h-amylin (peptide)
peptide: K([γGlu-γGlu-C20 diacid])CNTATCATQRLAEFLRHSSPNFGAIPSSTNVGSNTP-NH2
modifications: disulfide 2-7; N-terminus assumed
SMILES: CC[C@H](C)[C@H](NC(=O)[C@H](C)NC(=O)CNC(=O)[C@H](Cc1ccccc1)NC(=O)[C@H](CC(N)=O)NC(=O)[C@@H]1CCCN1C(=O)[C@H](CO)NC(=O)[C@H](CO)NC(=O)[C@H](Cc1c[nH]cn1)NC(=O)[C@H](CCCNC(=N)N)NC(=O)[C@H](CC(C)C)NC(=O)[C@H](Cc1ccccc1)NC(=O)[C@H](CCC(=O)O)NC(=O)[C@H](C)NC(=O)[C@H](CC(C)C)NC(=O)[C@H](CCCNC(=N)N)NC(=O)[C@H](CCC(N)=O)NC(=O)[C@@H](NC(=O)[C@H](C)NC(=O)[C@@H]1CSSC[C@H](NC(=O)[C@@H](N)CCCCNC(=O)CC[C@H](NC(=O)CC[C@H](NC(=O)CCCCCCCCCCCCCCCCCCC(=O)O)C(=O)O)C(=O)O)C(=O)N[C@@H](CC(N)=O)C(=O)N[C@@H]([C@@H](C)O)C(=O)N[C@@H](C)C(=O)N[C@@H]([C@@H](C)O)C(=O)N1)[C@@H](C)O)C(=O)N1CCC[C@H]1C(=O)N[C@@H](CO)C(=O)N[C@@H](CO)C(=O)N[C@H](C(=O)N[C@@H](CC(N)=O)C(=O)N[C@H](C(=O)NCC(=O)N[C@@H](CO)C(=O)N[C@@H](CC(N)=O)C(=O)N[C@H](C(=O)N1CCC[C@H]1C(N)=O)[C@@H](C)O)C(C)C)[C@@H](C)O
notes: also called compound 13
hAmylin-R funct. EC50 (pM) [1]: 213 pM | Ratio hCT/hAmylin funct. [2]: 2.2

B4: N^ε1-[(4S)-4-carboxy-4-(19-carboxynonadecanoylamino)butanoyl]-[His14,Arg17,Pro21,Pro27,Pro34,Pro37]-h-amylin (peptide)
peptide: K([γGlu-C20 diacid])CNTATCATQRLAHFLRHSSPNFGAIPSSTNVGPNTP-NH2
modifications: disulfide 2-7; N-terminus assumed
SMILES: CC[C@H](C)[C@H](NC(=O)[C@H](C)NC(=O)CNC(=O)[C@H](Cc1ccccc1)NC(=O)[C@H](CC(N)=O)NC(=O)[C@@H]1CCCN1C(=O)[C@H](CO)NC(=O)[C@H](CO)NC(=O)[C@H](Cc1c[nH]cn1)NC(=O)[C@H](CCCNC(=N)N)NC(=O)[C@H](CC(C)C)NC(=O)[C@H](Cc1ccccc1)NC(=O)[C@H](Cc1c[nH]cn1)NC(=O)[C@H](C)NC(=O)[C@H](CC(C)C)NC(=O)[C@H](CCCNC(=N)N)NC(=O)[C@H](CCC(N)=O)NC(=O)[C@@H](NC(=O)[C@H](C)NC(=O)[C@@H]1CSSC[C@H](NC(=O)[C@@H](N)CCCCNC(=O)CC[C@H](NC(=O)CCCCCCCCCCCCCCCCCCC(=O)O)C(=O)O)C(=O)N[C@@H](CC(N)=O)C(=O)N[C@@H]([C@@H](C)O)C(=O)N[C@@H](C)C(=O)N[C@@H]([C@@H](C)O)C(=O)N1)[C@@H](C)O)C(=O)N1CCC[C@H]1C(=O)N[C@@H](CO)C(=O)N[C@@H](CO)C(=O)N[C@H](C(=O)N[C@@H](CC(N)=O)C(=O)N[C@H](C(=O)NCC(=O)N1CCC[C@H]1C(=O)N[C@@H](CC(N)=O)C(=O)N[C@H](C(=O)N1CCC[C@H]1C(N)=O)[C@@H](C)O)C(C)C)[C@@H](C)O
hAmylin-R funct. EC50 (pM) [1]: 52 pM | Ratio hCT/hAmylin funct. [2]: 0.8

B5: N^α1-[(4S)-4-carboxy-4-[[(4S)-4-carboxy-4-(19-carboxynonadecanoylamino)butanoyl]amino]butanoyl]-[Glu14,Arg17,Pro21,Pro27,Pro37]-h-amylin (peptide)
peptide: {C20 diacid-γGlu-γGlu}-KCNTATCATQRLAEFLRHSSPNFGAIPSSTNVGSNTP-NH2
modifications: disulfide 2-7
SMILES: CC[C@H](C)[C@H](NC(=O)[C@H](C)NC(=O)CNC(=O)[C@H](Cc1ccccc1)NC(=O)[C@H](CC(N)=O)NC(=O)[C@@H]1CCCN1C(=O)[C@H](CO)NC(=O)[C@H](CO)NC(=O)[C@H](Cc1c[nH]cn1)NC(=O)[C@H](CCCNC(=N)N)NC(=O)[C@H](CC(C)C)NC(=O)[C@H](Cc1ccccc1)NC(=O)[C@H](CCC(=O)O)NC(=O)[C@H](C)NC(=O)[C@H](CC(C)C)NC(=O)[C@H](CCCNC(=N)N)NC(=O)[C@H](CCC(N)=O)NC(=O)[C@@H](NC(=O)[C@H](C)NC(=O)[C@@H]1CSSC[C@H](NC(=O)[C@H](CCCCN)NC(=O)CC[C@H](NC(=O)CC[C@H](NC(=O)CCCCCCCCCCCCCCCCCCC(=O)O)C(=O)O)C(=O)O)C(=O)N[C@@H](CC(N)=O)C(=O)N[C@@H]([C@@H](C)O)C(=O)N[C@@H](C)C(=O)N[C@@H]([C@@H](C)O)C(=O)N1)[C@@H](C)O)C(=O)N1CCC[C@H]1C(=O)N[C@@H](CO)C(=O)N[C@@H](CO)C(=O)N[C@H](C(=O)N[C@@H](CC(N)=O)C(=O)N[C@H](C(=O)NCC(=O)N[C@@H](CO)C(=O)N[C@@H](CC(N)=O)C(=O)N[C@H](C(=O)N1CCC[C@H]1C(N)=O)[C@@H](C)O)C(C)C)[C@@H](C)O
notes: also called compound 14
hAmylin-R funct. EC50 (pM) [1]: 146 pM | Ratio hCT/hAmylin funct. [2]: 1.6

Now from value to binder:

hAmylin-R funct. EC50 (pM) [1]: 71 pM | Ratio hCT/hAmylin funct. [2]: 4.9
B2: N^ε1-[(4S)-4-carboxy-4-(19-carboxynonadecanoylamino)butanoyl]-[His14,Arg17,Pro21,Pro27,Pro31,Pro34]-h-amylin (peptide)
peptide: K([γGlu-C20 diacid])CNTATCATQRLAHFLRHSSPNFGAIPSSTPVGPNTY-NH2
modifications: disulfide 2-7; N-terminus assumed
SMILES: CC[C@H](C)[C@H](NC(=O)[C@H](C)NC(=O)CNC(=O)[C@H](Cc1ccccc1)NC(=O)[C@H](CC(N)=O)NC(=O)[C@@H]1CCCN1C(=O)[C@H](CO)NC(=O)[C@H](CO)NC(=O)[C@H](Cc1c[nH]cn1)NC(=O)[C@H](CCCNC(=N)N)NC(=O)[C@H](CC(C)C)NC(=O)[C@H](Cc1ccccc1)NC(=O)[C@H](Cc1c[nH]cn1)NC(=O)[C@H](C)NC(=O)[C@H](CC(C)C)NC(=O)[C@H](CCCNC(=N)N)NC(=O)[C@H](CCC(N)=O)NC(=O)[C@@H](NC(=O)[C@H](C)NC(=O)[C@@H]1CSSC[C@H](NC(=O)[C@@H](N)CCCCNC(=O)CC[C@H](NC(=O)CCCCCCCCCCCCCCCCCCC(=O)O)C(=O)O)C(=O)N[C@@H](CC(N)=O)C(=O)N[C@@H]([C@@H](C)O)C(=O)N[C@@H](C)C(=O)N[C@@H]([C@@H](C)O)C(=O)N1)[C@@H](C)O)C(=O)N1CCC[C@H]1C(=O)N[C@@H](CO)C(=O)N[C@@H](CO)C(=O)N[C@H](C(=O)N1CCC[C@H]1C(=O)N[C@H](C(=O)NCC(=O)N1CCC[C@H]1C(=O)N[C@@H](CC(N)=O)C(=O)N[C@H](C(=O)N[C@@H](Cc1ccc(O)cc1)C(N)=O)[C@@H](C)O)C(C)C)[C@@H](C)O

hAmylin-R funct. EC50 (pM) [1]: 132 pM | Ratio hCT/hAmylin funct. [2]: 0.8 | hCTR funct. EC50 (pM) [2]: 102 pM
B3: N^ε1-[(4S)-4-carboxy-4-[[(4S)-4-carboxy-4-(19-carboxynonadecanoylamino)butanoyl]amino]butanoyl]-[Glu14,Arg17,Pro21,Pro27,Pro34,Glu35,Pro37]-h-amylin (peptide)
peptide: K([γGlu-γGlu-C20 diacid])CNTATCATQRLAEFLRHSSPNFGAIPSSTNVGPETP-NH2
modifications: disulfide 2-7; N-terminus assumed
SMILES: CC[C@H](C)[C@H](NC(=O)[C@H](C)NC(=O)CNC(=O)[C@H](Cc1ccccc1)NC(=O)[C@H](CC(N)=O)NC(=O)[C@@H]1CCCN1C(=O)[C@H](CO)NC(=O)[C@H](CO)NC(=O)[C@H](Cc1c[nH]cn1)NC(=O)[C@H](CCCNC(=N)N)NC(=O)[C@H](CC(C)C)NC(=O)[C@H](Cc1ccccc1)NC(=O)[C@H](CCC(=O)O)NC(=O)[C@H](C)NC(=O)[C@H](CC(C)C)NC(=O)[C@H](CCCNC(=N)N)NC(=O)[C@H](CCC(N)=O)NC(=O)[C@@H](NC(=O)[C@H](C)NC(=O)[C@@H]1CSSC[C@H](NC(=O)[C@@H](N)CCCCNC(=O)CC[C@H](NC(=O)CC[C@H](NC(=O)CCCCCCCCCCCCCCCCCCC(=O)O)C(=O)O)C(=O)O)C(=O)N[C@@H](CC(N)=O)C(=O)N[C@@H]([C@@H](C)O)C(=O)N[C@@H](C)C(=O)N[C@@H]([C@@H](C)O)C(=O)N1)[C@@H](C)O)C(=O)N1CCC[C@H]1C(=O)N[C@@H](CO)C(=O)N[C@@H](CO)C(=O)N[C@H](C(=O)N[C@@H](CC(N)=O)C(=O)N[C@H](C(=O)NCC(=O)N1CCC[C@H]1C(=O)N[C@@H](CCC(=O)O)C(=O)N[C@H](C(=O)N1CCC[C@H]1C(N)=O)[C@@H](C)O)C(C)C)[C@@H](C)O

hAmylin-R funct. EC50 (pM) [1]: 101 pM | Ratio hCT/hAmylin funct. [2]: 1.8
B6: N^ε1-[(4S)--4-carboxy-4-(19-carboxynonadecanoylamino)butanoyl]-[Glu14,Arg17,Pro21,Pro27,Pro37]-h-amylin (peptide)
peptide: K([γGlu-C20 diacid])CNTATCATQRLAEFLRHSSPNFGAIPSSTNVGSNTP-NH2
modifications: disulfide 2-7; N-terminus assumed
SMILES: CC[C@H](C)[C@H](NC(=O)[C@H](C)NC(=O)CNC(=O)[C@H](Cc1ccccc1)NC(=O)[C@H](CC(N)=O)NC(=O)[C@@H]1CCCN1C(=O)[C@H](CO)NC(=O)[C@H](CO)NC(=O)[C@H](Cc1c[nH]cn1)NC(=O)[C@H](CCCNC(=N)N)NC(=O)[C@H](CC(C)C)NC(=O)[C@H](Cc1ccccc1)NC(=O)[C@H](CCC(=O)O)NC(=O)[C@H](C)NC(=O)[C@H](CC(C)C)NC(=O)[C@H](CCCNC(=N)N)NC(=O)[C@H](CCC(N)=O)NC(=O)[C@@H](NC(=O)[C@H](C)NC(=O)[C@@H]1CSSC[C@H](NC(=O)[C@@H](N)CCCCNC(=O)CC[C@H](NC(=O)CCCCCCCCCCCCCCCCCCC(=O)O)C(=O)O)C(=O)N[C@@H](CC(N)=O)C(=O)N[C@@H]([C@@H](C)O)C(=O)N[C@@H](C)C(=O)N[C@@H]([C@@H](C)O)C(=O)N1)[C@@H](C)O)C(=O)N1CCC[C@H]1C(=O)N[C@@H](CO)C(=O)N[C@@H](CO)C(=O)N[C@H](C(=O)N[C@@H](CC(N)=O)C(=O)N[C@H](C(=O)NCC(=O)N[C@@H](CO)C(=O)N[C@@H](CC(N)=O)C(=O)N[C@H](C(=O)N1CCC[C@H]1C(N)=O)[C@@H](C)O)C(C)C)[C@@H](C)O
notes: also called compound 12

Source: US20140087995A1 (published 2014)
